Data as given in patent US12551571B2, “Protease-cleavable substrates and methods of use thereof” (CytomX Therapeutics, Inc., priority 2022, dated 2026).
Square brackets hold non-standard residues; d marks the D form. Ends that are not written are not given here. Peptide text beside a SMILES is read from it. * marks the point of attachment. Dnp = O=[N+]([O-])c1ccc(*)c([N+](=O)[O-])c1; Mca = COc1ccc2c(CC(=O)*)cc(=O)oc2c1

What was measured:
[1] = tested on: supernatant from human bone marrow aspirates; assay: In situ stability of peptide probes in supernatant from human bone marrow aspirates; details: 20 μM peptide probe, 37° C.
MMP2 = target: T1, MMP2 (Homo sapiens, UniProt P08253); assay: Internally quenched peptide probe cleavage assay, MMP2; assay type: biochemical; details: internally quenched peptide probe 20 μM (20 pM in source), 20 nM protease, 37° C.
T1 sequence (P08253 110-660): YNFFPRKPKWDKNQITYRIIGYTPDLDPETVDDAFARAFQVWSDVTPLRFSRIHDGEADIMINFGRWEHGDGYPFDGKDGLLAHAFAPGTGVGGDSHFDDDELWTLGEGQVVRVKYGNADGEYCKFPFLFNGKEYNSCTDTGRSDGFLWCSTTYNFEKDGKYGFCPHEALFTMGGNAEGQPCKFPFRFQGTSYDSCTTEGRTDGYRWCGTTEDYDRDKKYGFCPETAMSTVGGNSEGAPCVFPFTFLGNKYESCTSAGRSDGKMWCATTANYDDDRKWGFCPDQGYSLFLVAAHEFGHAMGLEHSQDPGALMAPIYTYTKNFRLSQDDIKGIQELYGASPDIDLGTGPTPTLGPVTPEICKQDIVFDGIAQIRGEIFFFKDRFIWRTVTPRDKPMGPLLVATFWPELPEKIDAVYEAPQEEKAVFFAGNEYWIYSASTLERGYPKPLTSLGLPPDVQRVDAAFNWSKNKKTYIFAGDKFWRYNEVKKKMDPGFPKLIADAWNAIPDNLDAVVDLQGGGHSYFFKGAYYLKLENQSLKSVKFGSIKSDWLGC
Experimental: (§1) The CMs listed in Table 9 below were presented in an internally quenched peptide probe format, rather than included in an activatable antibody format. […] Cleavability kinetics (i.e., pM/s and kcat/KM (M^-1s^-1)) were determined in 96- or 384-well plate format at 37° C. in the following buffers: 50 mM TRIS-HCl (pH 7.4), 150 mM NaCl, 0.05% Tween 20 for MT-SP1, 50 mM Tris-HCl (pH 7.5), 10 mM CaCl2, 150 mM NaCl, 0.05% (w/v) Brij-35 for MMP2 and MMP9, and 50 mM HEPES (pH 6.8), 10 mM CaCl2, 0.5 mM MgCl2, 0.05% (w/v) Brij-35 for MMP14. Cleavability kinetics were determined on an Infinite 200 PRO (Tecan) multimode plate reader using a fluorescence excitation wavelength of 320 nm and an emission wavelength of 405 nm. […] The CMs listed in Table 12 below were presented in an internally quenched peptide probe format, rather than included in an activatable antibody format. […] Cleavability kinetics (i.e., pM/s) were determined in 96- or 384-well plate format at 37° C. in the following buffers: 50 mM TRIS-HCl (pH 7.4), 150 mM NaCl, 0.05% Tween 20 for MT-SP1, 50 mM Tris-HCl (pH 7.5), 10 mM CaCl2, 150 mM NaCl, 0.05% (w/v) Brij-35 for MMP2 and MMP9, and 50 mM HEPES (pH 6.8), 10 mM CaCl2, 0.5 mM MgCl2, 0.05% (w/v) Brij-35 for MMP14. Cleavability kinetics were determined on an Infinite 200 PRO (Tecan) multimode plate reader using a fluorescence excitation wavelength of 320 nm and an emission wavelength of 405 nm.

MMP14 = MMP14 (Homo sapiens, UniProt P50281); assay: Internally quenched peptide probe cleavage assay, MMP14; assay type: biochemical; details: internally quenched peptide probe 20 μM (20 pM in source), 20 nM protease, 37° C.
Experimental: as §1

MMP9 = MMP9 (Homo sapiens, UniProt P14780); assay: Internally quenched peptide probe cleavage assay, MMP9; assay type: biochemical; details: internally quenched peptide probe 20 μM (20 pM in source), 20 nM protease, 37° C.
Experimental: as §1

MT-SP1 = target: T2, MT-SP1 (Homo sapiens, UniProt Q9Y5Y6); assay: Internally quenched peptide probe cleavage assay, MT-SP1; assay type: biochemical; details: internally quenched peptide probe 20 μM (20 pM in source), 20 nM protease, 37° C.
T2 sequence (Q9Y5Y6 1-855): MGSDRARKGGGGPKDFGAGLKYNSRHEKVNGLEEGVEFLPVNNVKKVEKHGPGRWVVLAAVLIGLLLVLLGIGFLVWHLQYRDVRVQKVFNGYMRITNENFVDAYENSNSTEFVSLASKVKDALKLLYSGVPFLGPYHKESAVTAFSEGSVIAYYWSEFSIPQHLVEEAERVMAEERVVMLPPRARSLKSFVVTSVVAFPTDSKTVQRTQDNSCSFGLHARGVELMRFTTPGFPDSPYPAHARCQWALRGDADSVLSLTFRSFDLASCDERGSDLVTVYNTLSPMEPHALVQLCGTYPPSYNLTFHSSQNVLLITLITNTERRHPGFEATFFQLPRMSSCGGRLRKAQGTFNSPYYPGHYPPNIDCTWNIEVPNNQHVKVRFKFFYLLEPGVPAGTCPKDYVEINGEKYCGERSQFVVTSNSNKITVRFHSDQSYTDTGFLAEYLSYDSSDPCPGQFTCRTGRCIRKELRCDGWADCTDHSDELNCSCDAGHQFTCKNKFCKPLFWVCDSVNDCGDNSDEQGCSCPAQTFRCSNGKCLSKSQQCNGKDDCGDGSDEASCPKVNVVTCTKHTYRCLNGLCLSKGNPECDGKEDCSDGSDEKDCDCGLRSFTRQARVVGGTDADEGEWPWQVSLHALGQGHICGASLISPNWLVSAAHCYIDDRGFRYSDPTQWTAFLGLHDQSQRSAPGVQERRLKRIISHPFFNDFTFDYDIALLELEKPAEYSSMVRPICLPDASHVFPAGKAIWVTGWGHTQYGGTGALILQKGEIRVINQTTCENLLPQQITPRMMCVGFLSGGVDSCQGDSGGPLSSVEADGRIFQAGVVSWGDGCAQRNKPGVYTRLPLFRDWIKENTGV
Experimental: as §1

Chain of MMP9 (P14780 94-707): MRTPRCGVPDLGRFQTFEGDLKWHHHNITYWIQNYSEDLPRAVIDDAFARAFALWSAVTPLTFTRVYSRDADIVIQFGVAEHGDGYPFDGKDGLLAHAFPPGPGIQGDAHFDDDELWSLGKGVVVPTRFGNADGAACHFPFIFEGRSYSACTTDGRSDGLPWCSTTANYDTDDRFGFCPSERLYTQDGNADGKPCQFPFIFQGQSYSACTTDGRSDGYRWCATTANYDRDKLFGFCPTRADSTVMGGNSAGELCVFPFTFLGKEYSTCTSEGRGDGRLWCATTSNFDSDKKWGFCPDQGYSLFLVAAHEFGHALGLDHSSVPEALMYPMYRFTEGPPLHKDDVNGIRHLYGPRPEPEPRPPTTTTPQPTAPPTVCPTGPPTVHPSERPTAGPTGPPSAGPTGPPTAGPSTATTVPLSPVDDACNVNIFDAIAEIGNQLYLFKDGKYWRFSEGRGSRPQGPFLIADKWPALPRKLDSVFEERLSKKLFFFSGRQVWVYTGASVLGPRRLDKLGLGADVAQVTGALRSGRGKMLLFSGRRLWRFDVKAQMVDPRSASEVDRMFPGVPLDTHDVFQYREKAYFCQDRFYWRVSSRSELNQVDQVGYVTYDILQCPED

Row | Probe Cleavage (pM/s) MMP2 (MMP2) | Probe Cleavage (pM/s) MMP14 (MMP14) | Probe Cleavage (pM/s) MMP9 (MMP9) | Probe Cleavage (pM/s) MT-SP1 (MT-SP1) | Molecule | cleavage rate in supernatant from human bone marrow aspirates [1]
1 | – | – | – | – | COc1ccc2c(CC(=O)N[C@@H](CO)C(=O)N3CCC[C@H]3C(=O)N[C@@H](C)C(=O)NCC(=O)N[C@@H](CC(C)C)C(=O)N[C@@H](CO)C(=O)NCC(=O)N[C@@H](CCCNC(=N)N)C(=O)N[C@@H](CO)C(=O)NCC(=O)N[C@@H](CCCCNc3ccc([N+](=O)[O-])cc3[N+](=O)[O-])C(=O)N[C@H](CCCNC(=N)N)C(=O)O)cc(=O)oc2c1 [reference compound] (Mca-SPAGLSGRSGK(Dnp)[dR]-OH) | 2191 pM/s
2 | 623 pM/s | 344 pM/s | – | – | HQARSGPWGLL (Mca-HQARSGPWGLL-{Lys(DNP)-dR}) | –
3 | 594 pM/s | 379 pM/s | – | – | HQSRAGPWGLL (Mca-HQSRAGPWGLL-{Lys(DNP)-dR}) | –
4 | 61.6 pM/s | 0.00 pM/s | 86.5 pM/s | – | HQSRSPWG (Mca-HQSRSPWG-{Lys(DNP)-dR}) | –
5 | 4220 pM/s | 1280 pM/s | 2550 pM/s | 11500 pM/s | AIALHQSRS (also: MCA, Lys(DNP), D-Arg labels, places not given here) | –
6 | 434 pM/s | 92.7 pM/s | 328 pM/s | 1960 pM/s | HQSRSAIALY (also: MCA, Gly-Lys(DNP)-D-Arg labels, places not given here) [X1 is Y] | –
7 | – | 548 pM/s | – | 32.0 pM/s | HQSRPWGL (also: MCA, Lys(DNP), D-Arg labels, places not given here) | –
8 | 726 pM/s | 437 pM/s | – | – | AQSRSGPWGLL (Mca-AQSRSGPWGLL-{Lys(DNP)-dR}) | –
9 | 65.4 pM/s | 36.4 pM/s | 436 pM/s | – | HQSRSGAWGLL (Mca-HQSRSGAWGLL-{Lys(DNP)-dR}) | –
10 | 488 pM/s | 475 pM/s | – | – | HQSRSGPWALL (Mca-HQSRSGPWALL-{Lys(DNP)-dR}) | –
11 | 410 pM/s | 345 pM/s | – | – | HQSRSGPWGLA (Mca-HQSRSGPWGLA-{Lys(DNP)-dR}) | –
12 | 61.1 pM/s | 0.00 pM/s | 5.9 pM/s | – | HQSRSGPWGAL (Mca-HQSRSGPWGAL-{Lys(DNP)-dR}) | –
13 | 692 pM/s | 424 pM/s | – | – | HASRSGPWGLL (Mca-HASRSGPWGLL-{Lys(DNP)-dR}) | –
14 | 696 pM/s | 335 pM/s | – | 8.00 pM/s | HQSASGPWGLL (also: MCA, Lys(DNP), D-Arg labels, places not given here) | –
15 | 468 pM/s | 300 pM/s | 255 pM/s | 1750 pM/s | HQSRSAIALYA (also: MCA, Lys(DNP), D-Arg labels, places not given here) [X1 is Y and X2 is A] | –
16 | 94.8 pM/s | 27.3 pM/s | 705 pM/s | – | HQSRSGPWGL (Mca-HQSRSGPWGL-{Lys(DNP)-dR}) [X1 absent] | –
17 | – | 660 pM/s | – | – | HQSRSAPWGLL (Mca-HQSRSAPWGLL-{Lys(DNP)-dR}) | –
18 | 76.9 pM/s | 95.5 pM/s | 41.9 pM/s | – | HQSRSAIAL (Mca-HQSRSAIAL-{Lys(DNP)-dR}) | –

Row | Molecule | Probe Cleavage (pM/s) MMP2 (MMP2) | Probe Cleavage (pM/s) MMP14 (MMP14) | Probe Cleavage (pM/s) MMP9 (MMP9) | Probe Cleavage (pM/s) MT-SP1 (MT-SP1) | cleavage rate in supernatant from human bone marrow aspirates [1]
19 | PWGLHQSRS (also: MCA, Lys(DNP)-D-Arg labels, places not given here) | 2550 pM/s | 5880 pM/s | 5150 pM/s | 1280 pM/s | 302 pM/s
